Test results from article PMC10014274.

Target: VNp-mNeongreen-TEV-etanercept-His6 fusion protein (human)
Assay: SDS-PAGE without reducing agent and anti-mNeongreen western blot; VNp-mNG-etanercept purified from E. coli, without DTT

- stoichiometry N: 2
Substance: VNp-mNeongreen-TEV-etanercept-His6 fusion protein (Fc fusion)
